In paper PMC9720396, “Autoreactivity and broad neutralization of antibodies against HIV-1 are governed by distinct mutations: Implications for vaccine design strategies” (Frontiers in Immunology, 2022):

How the values were obtained:
[1] = target: T1, host protein UBE3A (Abcam), coupled to Luminex beads, Q05086; assay: Luminex bead assay; conditions: chain shown with the change; left panel; highest antibody concentration plotted, est. 2000 ng/ml; parent: est. 12; read off a plot
T1 chain: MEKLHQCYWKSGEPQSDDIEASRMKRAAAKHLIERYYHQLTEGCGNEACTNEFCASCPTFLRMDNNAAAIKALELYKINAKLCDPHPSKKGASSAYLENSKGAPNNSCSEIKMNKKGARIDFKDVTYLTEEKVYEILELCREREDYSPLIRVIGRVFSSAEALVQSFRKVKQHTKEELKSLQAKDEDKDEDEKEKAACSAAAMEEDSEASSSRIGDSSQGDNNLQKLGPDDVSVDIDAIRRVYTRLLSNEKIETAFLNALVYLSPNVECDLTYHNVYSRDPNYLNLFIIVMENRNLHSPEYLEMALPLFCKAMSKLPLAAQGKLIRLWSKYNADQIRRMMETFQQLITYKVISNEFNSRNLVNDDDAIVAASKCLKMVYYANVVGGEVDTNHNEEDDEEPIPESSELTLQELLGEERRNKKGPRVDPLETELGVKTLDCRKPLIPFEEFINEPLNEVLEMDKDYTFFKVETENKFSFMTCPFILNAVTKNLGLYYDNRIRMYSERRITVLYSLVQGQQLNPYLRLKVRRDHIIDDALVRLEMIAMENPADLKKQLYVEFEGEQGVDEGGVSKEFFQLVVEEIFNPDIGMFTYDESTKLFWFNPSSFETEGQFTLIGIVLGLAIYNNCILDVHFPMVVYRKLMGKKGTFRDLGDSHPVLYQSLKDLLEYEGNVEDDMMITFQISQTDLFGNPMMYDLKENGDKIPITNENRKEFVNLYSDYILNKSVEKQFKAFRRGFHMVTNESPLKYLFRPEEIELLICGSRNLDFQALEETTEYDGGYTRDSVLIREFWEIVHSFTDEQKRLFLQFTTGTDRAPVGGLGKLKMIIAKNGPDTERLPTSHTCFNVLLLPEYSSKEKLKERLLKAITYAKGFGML

Cen B = target: T2, Cen B (Homo sapiens (assumed), UniProt P07199); assay: ELISA; autoantigen ELISA (legend: Athena autoantigen assay); antigens coated at 20 µg/ml overnight at 4°C; Abs in serial dilutions 45 min at RT; HRP anti-human IgG, TMB, 450 nm; conditions: both partners purified
T2 construct: Cen B autoantigen (centromere protein B) of the autoantigen ELISA

[2] = target: T3, UBE3A on the ProtoArray human protein microarray (Homo sapiens, UniProt Q05086); assay: peptide or protein array; ProtoArray (Invitrogen) with 9,400 human proteins, in duplicate; 2 µg/ml recombinant Ab, 1.5 hours at 4°C; detected with Alexa Fluor 647 anti-human IgG; compared with the control Ab 151K; conditions: both partners purified
T3 construct: UBE3A, one of the 9,400 human proteins on the ProtoArray; source: bought: Invitrogen ProtoArray

[3] = target: host proteins on the ProtoArray (9,400 human proteins) (human); assay: as above
[4] = target: T4, host protein UBE3A (Abcam), coupled to Luminex beads (Homo sapiens, UniProt Q05086); assay: Luminex bead-based binding assay; UBE3A (Abcam) covalently linked to carboxylated beads; Abs serially diluted 1:3 from 2 µg/ml in PBS with 0.05% NaN3, 0.05% Tween 20, 1% BSA and 1% milk; 2 hours at room temperature; detected with PE goat anti-human IgG; conditions: both partners purified
T4 construct: UBE3A, host protein; bought from Abcam (printed there as UBE34); also called UBE34; source: bought: Abcam

T2 sequence (P07199 whole entry): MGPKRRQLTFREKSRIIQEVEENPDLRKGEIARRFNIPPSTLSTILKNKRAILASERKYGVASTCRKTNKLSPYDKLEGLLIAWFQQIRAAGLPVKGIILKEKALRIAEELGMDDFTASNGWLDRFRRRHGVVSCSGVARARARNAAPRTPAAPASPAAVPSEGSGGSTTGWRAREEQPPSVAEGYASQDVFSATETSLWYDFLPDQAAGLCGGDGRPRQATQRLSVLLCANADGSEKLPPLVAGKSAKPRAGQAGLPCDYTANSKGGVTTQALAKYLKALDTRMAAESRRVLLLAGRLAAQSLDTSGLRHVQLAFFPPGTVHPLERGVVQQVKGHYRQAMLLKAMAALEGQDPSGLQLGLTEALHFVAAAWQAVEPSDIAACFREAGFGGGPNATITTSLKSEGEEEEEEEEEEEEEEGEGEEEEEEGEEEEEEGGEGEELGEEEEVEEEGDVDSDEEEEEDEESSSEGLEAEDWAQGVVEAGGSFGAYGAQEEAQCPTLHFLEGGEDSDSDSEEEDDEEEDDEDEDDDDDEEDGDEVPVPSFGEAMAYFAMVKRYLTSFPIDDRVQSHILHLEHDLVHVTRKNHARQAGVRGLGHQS

B1: IA2_E64K (antibody, V domains shown)
V domain 1: QVQLQESGPGVVKSSETLSLTCTVSGGSMGGTYWSWLRLSPGKGLEWIGYIFHTGHTNYNPSLKGRVSISVDTSEDQFSLRLRSVTAADTAVYFCASLPRGQLVNAYFRNWGRGTLVSVTA
V domain 2: SYELTQPPSVSVSPGQTATITCSGDKVASKNVCWYQVKPGQSPEVVMYENYKRPSGIPDRFSGSKSGSTATLTIRGTQATDEADYYCQVWDSFSTFVFGSGTQVTV
notes: as the heavy chain of m8 (IA2); as the light chain of m8 (IA2); recombinant IgG; also called the E64K mutant; IA2 E64K mutant; source: Expi293, transiently transfected, purified (Protein A agarose)
[1]
  response: 2200 gMFI
Cen B
  binding result: binds
[2]
  fold higher binding than Abs without E64K: ~10 fold
[3]
  polyreactivity index (PI): 0.14

B2: IA1, inferred late intermediate of the CH103-106 bnAb lineage (antibody, V domains shown)
V domain 1: QVQLQESGPGVVKSSETLSLTCTVSGGSMGGTYWSWLRLSPGKGLEWIGYIFHTGHTNYSPSLKGRVSISVDTSEDQFSLRLRSVTAADTAVYFCASLPRGQLVNAYFRNWGRGTLVSVTA
V domain 2: SYELTQPPSVSVSPGQTATITCSGDKVASKNVCWYQVKPGQSPEVVMYENYKRPSGIPDRFSGSKSGSTATLTIRGTQATDEADYYCQVWDSFSTFVFGSGTQVTV
notes: as the heavy chain of m8 (IA2) with the two changes below; same light chain as IA2; recombinant IgG; also called 1A1; source: Expi293, transiently transfected, purified (Protein A agarose)
[2]
  fold higher binding than Abs without E64K: ~10 fold
[3]
  polyreactivity index (PI): 0.64

B3: CH103 VH S107I mutant (antibody, V domains shown)
V domain 1: QVQLQESGPGVVKSSETLSLTCTVSGGSMGGTYWSWLRLSPGKGLEWIGYIFHTGETNYSPSLKGRVSISVDTSEDQFSLRLRSVTAADTAVYFCASLPRGQLVNAYFRNWGRGILVSVTA
V domain 2: SYELTQPPSVSVSPGQTATITCSGASTNVCWYQVKPGQSPEVVIFENYKRPSGIPDRFSGSKSGSTATLTIRGTQAIDEADYYCQVWDSFSTFVFGSGTQVTV
notes: as the heavy chain of m10 (CH103); as the light chain of m10 (CH103); recombinant IgG; source: Expi293, transiently transfected, purified (Protein A agarose)
[4]
  binding result: binds

B4: CH103 VL T31V mutant (antibody, V domains shown)
V domain 1: QVQLQESGPGVVKSSETLSLTCTVSGGSMGGTYWSWLRLSPGKGLEWIGYIFHTGETNYSPSLKGRVSISVDTSEDQFSLRLRSVTAADTAVYFCASLPRGQLVNAYFRNWGRGSLVSVTA
V domain 2: SYELTQPPSVSVSPGQTATITCSGASVNVCWYQVKPGQSPEVVIFENYKRPSGIPDRFSGSKSGSTATLTIRGTQAIDEADYYCQVWDSFSTFVFGSGTQVTV
notes: as for B3
[4]
  binding result: binds

B5: CH103 VL I81T mutant (antibody, V domains shown)
V domain 1: QVQLQESGPGVVKSSETLSLTCTVSGGSMGGTYWSWLRLSPGKGLEWIGYIFHTGETNYSPSLKGRVSISVDTSEDQFSLRLRSVTAADTAVYFCASLPRGQLVNAYFRNWGRGSLVSVTA
V domain 2: SYELTQPPSVSVSPGQTATITCSGASTNVCWYQVKPGQSPEVVIFENYKRPSGIPDRFSGSKSGSTATLTIRGTQATDEADYYCQVWDSFSTFVFGSGTQVTV
notes: as for B3
[4]
  binding result: binds

B6: CH103 VL D85E mutant (antibody, V domains shown)
V domain 1: QVQLQESGPGVVKSSETLSLTCTVSGGSMGGTYWSWLRLSPGKGLEWIGYIFHTGETNYSPSLKGRVSISVDTSEDQFSLRLRSVTAADTAVYFCASLPRGQLVNAYFRNWGRGSLVSVTA
V domain 2: SYELTQPPSVSVSPGQTATITCSGASTNVCWYQVKPGQSPEVVIFENYKRPSGIPDRFSGSKSGSTATLTIRGTQAIDEAEYYCQVWDSFSTFVFGSGTQVTV
notes: as for B3
[4]
  binding result: binds

B7: CH103 VL mutant with the 3-aa insertion (DKV) (antibody, V domains shown)
V domain 1: QVQLQESGPGVVKSSETLSLTCTVSGGSMGGTYWSWLRLSPGKGLEWIGYIFHTGETNYSPSLKGRVSISVDTSEDQFSLRLRSVTAADTAVYFCASLPRGQLVNAYFRNWGRGSLVSVTA
V domain 2: SYELTQPPSVSVSPGQTATITCSGDKVASTNVCWYQVKPGQSPEVVIFENYKRPSGIPDRFSGSKSGSTATLTIRGTQAIDEADYYCQVWDSFSTFVFGSGTQVTV
notes: as the heavy chain of m10 (CH103); as the light chain of m10 (CH103) with DKV inserted as in CH106; recombinant IgG; also called 3-aa (DKV) insertion; source: Expi293, transiently transfected, purified (Protein A agarose)
[4]
  binding result: binds

B8: CH103 VL F49Y mutant (antibody, V domains shown)
V domain 1: QVQLQESGPGVVKSSETLSLTCTVSGGSMGGTYWSWLRLSPGKGLEWIGYIFHTGETNYSPSLKGRVSISVDTSEDQFSLRLRSVTAADTAVYFCASLPRGQLVNAYFRNWGRGSLVSVTA
V domain 2: SYELTQPPSVSVSPGQTATITCSGASTNVCWYQVKPGQSPEVVIYENYKRPSGIPDRFSGSKSGSTATLTIRGTQAIDEADYYCQVWDSFSTFVFGSGTQVTV
notes: as for B3
[4]
  fold reduction of binding against parental CH103: ~10 fold
